Measured values from patent US20260184765A1 (INVENRA, published 2026).

Target: CTLA4 (UniProt P16410 36-161, limits assumed)
Assay: Octet BLI, antigen immobilized, B-Body as analyte
From the text: In each instance, the antigen is immobilized and the B-Body is the analyte.

Chain of CTLA4 (P16410 36-161 limits assumed): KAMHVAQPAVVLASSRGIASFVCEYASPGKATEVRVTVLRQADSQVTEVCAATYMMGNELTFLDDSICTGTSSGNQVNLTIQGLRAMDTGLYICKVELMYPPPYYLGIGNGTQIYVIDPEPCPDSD

B1: bivalent bispecific B-Body "BC1" (bispecific antibody)
chain 1: not shown
chain 2: EVQLVESGGGLVQPGGSLRLSCAASGFTFSDYDIHWVRQAPGKGLEWVGDITPYDGTTNYADSVKGRFTISADTSKNTAYLQMNSLRAEDTAVYYCARLVGEIATGFDYWGQGTLVTVSSASPREPQVYTDPPSRDELTKNQVSLTCLVKGFYPSDIAVEWESNGQPENNYKTTPPVLDSDGSFFLYSKLTVDKSRWQQGNVFSCSVMHEALHNHYTQKSLSLSGEC
chain 3: not shown
chain 4: QVQLVESGGGVVQPGRSLRLDCKASGITFSNSGMHWVRQAPGKGLEWVAVIWYDGSKRYYADSVKGRFTISRDNSKNTLFLQMNSLRAEDTAVYYCATNDDYWGQGTLVTVSSASTKGPSVFPLAPSSKSTSGGTAALGCLVKDYFPEPVTVSWNSGALTSGVHTFPAVLQSSGLYSLSSVVTVPSSSLGTQTYICNVNHKPSNTKVDKKVEPPKSC
notes: Specific for PD1 (nivolumab variable regions) and Antigen A; four different chains, one of each; also called bivalent 1×1 bispecific construct BC1
binding result: no binding
